Measured values from the Human Domainome abundance scans (Beltran et al. 2025).
± gives the uncertainty stated by the source.

B1: Mineralocorticoid receptor, residues 600 to 675; numbered along this chain, P08235 (parent)
chain: SKICLVCGDEASGCHYGVVTCGSCKVFFKRAVEGQHNYLCAGRNDCIIDKIRRKNCPACRLQKCLQAGMNLGARKS

Variants of: B1
Test: abundance fitness (aPCA) (normalised: wild type 0, dead -1); higher = more abundant; growth selection in yeast, the domain comes from the species named
Conditions: Homo sapiens

Variant	abundance fitness
L65K	-0.107 ± 0.061
L65R	-0.055 ± 0.034
L65E	0.031 ± 0.049
L65D	-0.051 ± 0.15
L65F	-0.01 ± 0.1
L65A	-0.05 ± 0.045
L65N	-0.058 ± 0.082
L65T	-0.037 ± 0.06
L65H	0.032 ± 0.071
L65W	-0.035 ± 0.051
L65Q	0.018 ± 0.054
L65Y	-0.001 ± 0.076
L65M	-0.052 ± 0.05
L65V	-0.087 ± 0.042
L65G	-0.051 ± 0.038
C64G	-0.02 ± 0.029
C64P	-0.869 ± 0.11
C64L	-0.351 ± 0.039
C64S	-0.113 ± 0.031
C64A	-0.028 ± 0.034
C64Q	-0.315 ± 0.061
C64F	-0.466 ± 0.071
C64V	-0.587 ± 0.057
C64T	-0.35 ± 0.046

Variant	abundance fitness
C64N	-0.886 ± 0.2
C64I	-0.415 ± 0.065
C64K	-0.885 ± 0.14
C64H	-0.821 ± 0.14
C64E	-0.851 ± 0.11
C64W	-0.523 ± 0.052
C64Y	-0.452 ± 0.06
C64D	-0.716 ± 0.097
C64M	-0.017 ± 0.041
C56Y	-0.562 ± 0.26
C56R	-0.358 ± 0.33
N55S	-0.051 ± 0.038
N55E	-0.082 ± 0.085
N55I	0.009 ± 0.048
N55C	-0.032 ± 0.057
N55R	-0.015 ± 0.039
N55L	-0.021 ± 0.039
N55M	-0.096 ± 0.062
N55Q	0.013 ± 0.082
N55T	0.015 ± 0.04
N55F	-0.093 ± 0.051
N55P	-0.144 ± 0.047
N55Y	-0.155 ± 0.054
N55W	-0.085 ± 0.088

Variant	abundance fitness
N55H	-0.038 ± 0.045
N55D	0.017 ± 0.048
N55A	-0.064 ± 0.047
K63R	-0.082 ± 0.045
K63G	-0.104 ± 0.042
K63I	-0.101 ± 0.047
K63E	-0.16 ± 0.064
K63Y	-0.137 ± 0.049
K63P	-0.754 ± 0.099
K63H	-0.099 ± 0.044
K63N	-0.058 ± 0.046
K63Q	-0.134 ± 0.081
K63T	-0.024 ± 0.045
K63W	-0.204 ± 0.083
K63A	-0.075 ± 0.045
K63M	-0.074 ± 0.065
K63D	-0.318 ± 0.063
K63L	-0.092 ± 0.04
K63S	-0.104 ± 0.037
K63F	-0.192 ± 0.052
L61K	0.021 ± 0.048
L61Q	-0.005 ± 0.063
L61S	-0.471 ± 0.059
L61F	-0.031 ± 0.085

Variant	abundance fitness
L61I	-0.155 ± 0.086
L61T	-0.361 ± 0.07
L61W	-0.004 ± 0.042
L61D	-0.774 ± 0.19
L61E	-0.214 ± 0.054
L61N	-0.338 ± 0.094
L61C	-0.843 ± 0.2
L61H	-0.233 ± 0.1
L61V	-0.101 ± 0.038
L61G	-0.566 ± 0.049
L61A	-0.315 ± 0.056
L61Y	0.04 ± 0.074
L61R	-0.205 ± 0.039
C59R	-0.801 ± 0.061
C59N	-0.711 ± 0.092
C59F	-0.788 ± 0.13
C59D	-0.626 ± 0.093
C59P	-0.615 ± 0.08
C59W	-0.855 ± 0.098
C59Q	-0.957 ± 0.15
C59M	-0.913 ± 0.2
C59E	-0.955 ± 0.15
C59T	-0.654 ± 0.066
C59L	-0.658 ± 0.062

Variant	abundance fitness
C59I	-0.955 ± 0.14
C59G	-0.917 ± 0.083
C59K	-0.972 ± 0.17
C59S	-0.762 ± 0.07
C59Y	-0.995 ± 0.17
C59H	-0.449 ± 0.068
Q66A	0.011 ± 0.054
Q66P	-0.697 ± 0.18
Q66C	-0.023 ± 0.071
Q66V	-0.039 ± 0.05
Q66R	-0.014 ± 0.039
Q66F	-0.019 ± 0.067
Q66E	0.081 ± 0.084
Q66I	-0.029 ± 0.1
Q66L	-0.112 ± 0.044
Q66W	-0.029 ± 0.053
Q66M	-0.065 ± 0.05
Q66D	0.018 ± 0.088
Q66T	-0.051 ± 0.066
Q66G	-0.044 ± 0.049
Q66H	-0.045 ± 0.11
P57L	-0.142 ± 0.036
P57R	-0.115 ± 0.044
P57K	0.006 ± 0.057

Variant	abundance fitness
P57T	-0.082 ± 0.04
P57S	-0.051 ± 0.039
P57A	-0.04 ± 0.042
P57D	0.061 ± 0.051
P57W	-0.027 ± 0.059
P57H	-0.002 ± 0.04
P57Q	-0.09 ± 0.059
P57C	-0.042 ± 0.057
P57E	-0.048 ± 0.078
P57V	-0.135 ± 0.046
P57G	-0.062 ± 0.065
P57N	-0.018 ± 0.038
P57F	-0.016 ± 0.045
P57I	-0.168 ± 0.044
Q62K	0.046 ± 0.1
Q62F	-0.16 ± 0.069
Q62V	-0.022 ± 0.056
Q62W	-0.059 ± 0.081
Q62M	0.026 ± 0.082
Q62G	-0.028 ± 0.049
Q62Y	-0.121 ± 0.053
Q62C	-0.002 ± 0.056
Q62L	0.012 ± 0.042
Q62P	-0.887 ± 0.13

Variant	abundance fitness
Q62T	-0.052 ± 0.055
Q62S	-0.049 ± 0.045
Q62A	-0.013 ± 0.053
Q62R	-0.045 ± 0.044
Q62N	0.033 ± 0.064
Q62H	0.006 ± 0.051
Q62E	-0.054 ± 0.076
A58P	-0.117 ± 0.054
A58K	-0.044 ± 0.049
A58F	-0.082 ± 0.08
A58W	-0.102 ± 0.052
A58D	-0.085 ± 0.067
A58Q	0.035 ± 0.061
A58I	-0.827 ± 0.24
A58E	-0.12 ± 0.053
A58R	-0.033 ± 0.036
A58N	-0.03 ± 0.092
A58G	-0.051 ± 0.034
A58C	0.05 ± 0.068
A58V	-0.446 ± 0.056
A58M	-0.141 ± 0.049
A58L	-0.175 ± 0.047
A58S	0.012 ± 0.041
